The record followed here is US9163032B2, “Esters of DCPLA and methods of treatment using the same” (Blanchette Rockefeller Neurosciences Institute, priority 2011, dated 2015).

Data set [1] deals with rat primary hippocampal neurons. The data set is described as follows: Neurotoxic effect of Aβ1-42 oligomers, MTT viability assay. Particulars: 20 hr. It is filed as cell-based. How it is done: Amylospheroids (ASPDs) and Aβ monomers were prepared following Hoshi, M., et al. (2003) Proc Natl Acad Sci USA 100, 6370-6375, and Noguchi, A., et al. (2009) J Biol Chem 284, 32895-32905. Briefly, Aβ1-42 was dissolved in 1,1,1,3,3,3-hexafluoro-2-propanol and incubated overnight at 4° C. and then 3 hr at 37° C. The dissolved Aβ1-42 was then lyophilized in 1.5 ml polypropylene centrifuge tubes at 40 nmol/tube concentration. For preparing the ASPDs, the lyophilized Aβ was dissolved in phosphate buffered saline (PBS) without Ca^2+ or Mg^2+ at less than 50 μM concentration and rotated for 14 hr at 4° C. After incubation, the Aβ solution was purified using a 100 kDa molecular mass cutoff filter (Amicon Ultra, Millipore) and the high-molecular weight fraction was saved to obtain the most toxic ASPDs. Aβ derived diffusible ligands (ADDLs) were produced as previously described. See Lambert, M. P et al., Proc. Natl. Acad. Sci. USA, 1998, 95: 6448-6453. Briefly, Aβ1-42 was solubilized at 5 mM in dimethyl sulfoxide, diluted to 100 μM in F12k medium and was incubated at 4° C. for 24 hr. The solution was centrifuged at 14000×g for 10 min at 4° C. and the supernatant was used as the ADDLs.
Viability of cells was measured by MTT assay. MTT (i.e., 3-(4,5-dimethylthiazol-2-yl)-2,5-diphenyltetrazolium bromide) is a tetrazolium salt that is cleaved to formazan by the succinate dehydrogenase, which is only active in viable cells. After solubilization of the formazan, the amount of dye can be quantified with a microplate reader at 570 nm along with a reference of 630 nm. For the MTT assay, 5×10^4 primary rat hippocampal neurons from 18-day-old embryonic Sprague-Dawley rat brains or SH-SY5Y cells were plated on each well of 24-well plates coated with poly-D-lysine. After treatment, the cells were washed with 1× PBS and were incubated with 200 μl of 1 mg/ml MTT solution (Sigma, USA) at 37° C. for 2 hr. Then the MTT-solution was removed and the cells were lysed with 200 μl isopropanol containing 0.04 M HCl and […] for 10 min. Finally, the reading was taken at 570 nm and 630 nm. All the samples were done in triplicate and the data were represented as the percentage of control.
To assess the neurotoxic effect of different sized oligomers, rat primary hippocampal neurons were treated with variable concentrations of these Aβ1-42 species for 20 hr. Viability of the treated cells was compared to untreated cells using the MTT assay described above.
On the technique in general: Tetrazolium assays rely on reduction of a dye to a coloured formazan, in cell work by metabolically active cells.

Another data set addresses PKC-δ (Homo sapiens, UniProt Q05655). The experiment in a line: PKC activation assay with purified PKC-δ isozyme. It is filed as biochemical. As for the experimental part:
For measurement of PKC activation by DCPLA-ME, activation of recombinant PKC-α, PKC-ε, and PKC-δ was evaluated. DCPLA-ME induced activation was measured in the absence of diacylglycerol (DAG) and phosphatidylserine (PS) as described earlier. See Nelson, T. J. et al., J. Biol. Chem., 2009, 284: 34514-34521, and Kanno, T. et al., J. Cell Physiol., 2009, 221: 183-188. Individual enzymes were incubated for 15 min at 37° C. in the presence of 10 μM histones, 4.89 mM CaCl2, 10 mM MgCl2, 20 mM HEPES (pH 7.4), 0.8 mM EDTA, 4 mM EGTA, 4% glycerol, 8 μg/ml aprotinin, 8 μg/ml leupeptin, 2 mM benzamidine, and 0.5 μCi of [γ-^32P]ATP. Purified PKC-α, PKC-ε and PKC-δ were preincubated with DCPLA-ME for 5 min at room temperature. [^32P]-Phosphoprotein formation was measured by adsorption onto phosphocellulose.
To measure PKC, 10 μl of cell homogenate or purified PKC isozyme was incubated for 15 min at 37° C. in the presence of 10 μM histones, 4.89 mM CaCl2, 1.2 μg/μl phosphatidyl-L-serine, 0.18 μg/μl 1,2-dioctanoyl-sn-glycerol, 10 mM MgCl2, 20 mM HEPES (pH 7.4), 0.8 mM EDTA, 4 mM EGTA, 4% glycerol, 8 μg/ml aprotinin, 8 μg/ml leupeptin, and 2 mM benzamidine. [γ32P]ATP (0.5 μCi) was added and 32P-phosphoprotein formation was measured by adsorption onto phosphocellulose as described previously. See Nelson et al., J. Neurochemistry, 1995, 65: 2350-2357. […]

Entries after “also recorded” stand apart in the source; their conditions may differ.

Sequence of PKC-δ (Q05655 whole entry): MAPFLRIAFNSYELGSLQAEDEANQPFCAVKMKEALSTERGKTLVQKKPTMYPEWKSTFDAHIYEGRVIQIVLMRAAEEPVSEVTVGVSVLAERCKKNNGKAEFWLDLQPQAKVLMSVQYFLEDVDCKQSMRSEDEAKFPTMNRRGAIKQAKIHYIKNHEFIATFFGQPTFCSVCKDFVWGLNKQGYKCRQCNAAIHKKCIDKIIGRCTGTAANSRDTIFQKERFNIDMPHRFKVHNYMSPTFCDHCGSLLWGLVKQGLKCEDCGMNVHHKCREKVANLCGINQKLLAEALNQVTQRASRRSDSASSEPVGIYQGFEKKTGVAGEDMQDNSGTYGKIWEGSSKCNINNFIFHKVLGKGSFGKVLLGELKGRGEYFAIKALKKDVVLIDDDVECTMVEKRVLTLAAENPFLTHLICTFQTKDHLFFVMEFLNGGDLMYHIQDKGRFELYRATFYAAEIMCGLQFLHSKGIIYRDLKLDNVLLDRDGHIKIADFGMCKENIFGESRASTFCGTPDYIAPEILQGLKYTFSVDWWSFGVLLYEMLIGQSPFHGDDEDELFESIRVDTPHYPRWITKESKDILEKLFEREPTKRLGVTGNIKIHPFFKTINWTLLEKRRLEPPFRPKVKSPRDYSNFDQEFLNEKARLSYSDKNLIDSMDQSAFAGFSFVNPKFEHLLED

With “ASPD: Amylospheroids from Aβ1-42, 100 kDa filter retentate, containing 39 monomers on average”, the “Viability of primary neuron” value in data set [1] (0.5 nM) is reported as 96.12 ± 0.733 % of control; in data set [1] (1 nM), 89.64 ± 5.99 % of control; in data set [1] (2 nM) it was 87.75 ± 0.94 % of control; in data set [1] (5 nM), 70.95 ± 1.89 % of control; in data set [1] (10 nM) it was 68.68 ± 0.84 % of control; in data set [1] (50 nM) it was 57.55 ± 3.35 % of control. Further, the “Viability of primary neuron” value in data set [1] (50 nM, listed as ASPDs) is recorded as 57.1±4.9 % of control; in data set [1] (500 nM), 52.94 ± 3.75 % of control.

Regarding `CCCCCC1CC1CC1CC1CCCCCCCC(=O)OC` (stereo not drawn) [DCPLA-ME, DCPLA methyl ester], the “effect on PKC-δ” value on PKC-δ is “did not have a major effect; also recorded: less inhibitory effect”.
